# According to patent US20200282017A1 (CLEVELAND CLINIC FOUNDATION, published 2020):
# B1: Box A protein, truncation mutant composed of aa 2-97 of HMGB1 (other)
# chain: GKGDPKKPRGKMSSYAFFVQTCREEHKKKHPDASVNFSEFSKKCSERWKTMSAKEKGKFEDMAKADKARYEREMKTYIPPKGETKKKFKDPNAPKR
# notes: The position of the His tag is unknown; also called Box A from HMGB1; not shown: His tag implied by detection with anti-HIS antibody
# B2: High mobility group box 1 (HMGB1), recombinant human HMGB1 produced in mammalian cells (other)
# chain: MGKGDPKKPRGKMSSYAFFVQTCREEHKKKHPDASVNFSEFSKKCSERWKTMSAKEKGKFEDMAKADKARYEREMKTYIPPKGETKKKFKDPNAPKRPPSAFFLFCSEYRPKIKGEHPGLSIGDVAKKLGEMWNNTAADDKQPYEKKAAKLKEKYEKDIAAYRAKGKPDAAKKGVVKAEKSKKKKEEEEDEEDEEDEEEEEDEEDEDEEEDDDDE
# notes: also called recombinant HMGB1; full-length HMGB1 protein
# Legend:
# [1] = target: T1, E. coli (K12) FimH, wild type, on the surface of E. coli (Escherichia coli (K12), UniProt P08191 22-300); experiment: flow cytometry of FimH+ or FimH- E. coli (K12) treated with Box A protein and stained with anti-HIS antibody
# T1 construct: whole, on cells; also called FimH-WT; fimbrial protein H
# [2] = target: T1, E. coli (K12) FimH, wild type, on the …; experiment: immunofluorescence microscopy of E. coli +/- FimH exposed to recombinant HMGB1, stained with anti-HMGB1 antibody
# T1 sequence (P08191 22-300): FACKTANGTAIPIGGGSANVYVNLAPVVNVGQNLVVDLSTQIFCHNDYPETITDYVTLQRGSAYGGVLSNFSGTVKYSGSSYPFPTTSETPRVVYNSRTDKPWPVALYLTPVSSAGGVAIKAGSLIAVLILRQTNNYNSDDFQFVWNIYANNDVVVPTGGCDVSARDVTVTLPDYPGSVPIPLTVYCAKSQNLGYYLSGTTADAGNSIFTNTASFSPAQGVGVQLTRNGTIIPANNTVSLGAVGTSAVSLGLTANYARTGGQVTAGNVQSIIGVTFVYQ
Binder,binding result [1],binding result [2]
B1,binds,
B2,,binds
